Laboratory results as given in paper PMC12038025.

How the values were obtained:
O35161 = assay: SEC-MALS
[1] = target: CELSR1 extracellular region, CADH1 through GAIN domains (residues 255-2477) (mouse) (UniProt O35161); assay: SEC-MALS

| Substance | percent dimer in the main peak (O35161) | stoichiometry N [1] |
| --- | --- | --- |
| CELSR1 extracellular region, CADH1 through GAIN domains (residues 255-2477) | roughly 60% dimer |  |
| CELSR1 extracellular region, CADH1 through GAIN domains (residues 255-2477), O35161 255-2477 |  | 2 |
